{
  "source": "patent US20190300623A1",
  "about": "(POLYTHERICS, published 2019)",
  "data": [
    {"molecular_target": "PSMA on PSMA-positive LNCaP (clone FGC) and C4-2 cells", "assay": "cell-based or functional assay", "units": {"IC50 (nM), anti-proliferative effect on C4-2 cells (CellTiter Glo viability)": "nM", "IC50 (nM), anti-proliferative effect on LNCaP cells (CellTiter Glo viability)": "nM"}, "values": [
      {"binder": "AB-02-mc-val-cit-PAB-MMAE (antibody, human IgG1, V domains shown, mc-val-cit-PAB-MMAE (maleimide reagent) conjugated after TCEP reduction; average DAR 3.5 (±0.2); attachment residues not given) VH: EVQLVQSGAEVKKPGASVKVSCKASGYTFTEYTIHWVRQAPGKGLEWIGNINPNNGGTTYNQKFEDRVTITVDKSTSTAYMELSSLRSEDTAVYYCAAYWLFDYWGQGTTVTVSS VL: DIQMTQSPSTLSASVGDRVTITCKASQDVGTAVDWYQQKPGQAPKLLIYWASTRHTGVPDRFSGSGSGTDFTLTISRLQPEDFAVYYCQQYNSYPLTFGQGTKVDIK", "IC50 (nM), anti-proliferative effect on C4-2 cells (CellTiter Glo viability)": 0.18, "IC50 (nM), anti-proliferative effect on LNCaP cells (CellTiter Glo viability)": 0.61},
      {"binder": "AB-03-mc-val-cit-PAB-MMAE (antibody, human IgG1, V domains shown, mc-val-cit-PAB-MMAE (maleimide reagent) conjugated after TCEP reduction; average DAR 3.5 (±0.2); attachment residues not given) VH: EVQLVQSGAEVKKPGASVKVSCKASGYTFTEYTIHWVRQAPGKGLEWIGNINPNNGGTTYNQKFEDRVTITVDKSTSTAYMELSSLRSEDTAVYYCAGGWTFDYWGQGTTVTVSS VL: DIQMTQSPSTLSASVGDRVTITCKASQDVGTAVDWYQQKPGQAPKLLIYWASTRHTGVPDRFSGSGSGTDFTLTISRLQPEDFAVYYCQQFTRYPLTFGQGTKVDIK", "IC50 (nM), anti-proliferative effect on C4-2 cells (CellTiter Glo viability)": 0.22, "IC50 (nM), anti-proliferative effect on LNCaP cells (CellTiter Glo viability)": 0.7},
      {"binder": "AB-05-mc-val-cit-PAB-MMAE (antibody, human IgG1, V domains shown, mc-val-cit-PAB-MMAE (maleimide reagent) conjugated after TCEP reduction; average DAR 3.5 (±0.2); attachment residues not given) VH: EVQLVQSGAEVKKPGASVKVSCKASGYTFTEYTIHWVRQAPGKGLEWIGNINPNNGGTTYNQKFEDRVTITVDKSTSTAYMELSSLRSEDTAVYYCAAYWLFDYWGQGTTVTVSS VL: DIQMTQSPSTLSASVGDRVTITCKASQDVGTAVDWYQQKPGQAPKLLIYWASTRHTGVPDRFSGSGSGTDFTLTISRLQPEDFAVYYCQQYNAYSLTFGQGTKVDIK", "IC50 (nM), anti-proliferative effect on C4-2 cells (CellTiter Glo viability)": 0.41, "IC50 (nM), anti-proliferative effect on LNCaP cells (CellTiter Glo viability)": 1.27},
      {"binder": "AB-04-mc-val-cit-PAB-MMAE (antibody, human IgG1, V domains shown, mc-val-cit-PAB-MMAE (maleimide reagent) conjugated after TCEP reduction; average DAR 3.5 (±0.2); attachment residues not given) VH: EVQLVQSGAEVKKPGASVKVSCKASGYTFTEYTIHWVRQAPGKGLEWIGNINPNNGGTTYNQKFEDRVTITVDKSTSTAYMELSSLRSEDTAVYYCAGAWTMDYWGQGTTVTVSS VL: DIQMTQSPSTLSASVGDRVTITCKASQDVGTAVDWYQQKPGQAPKLLIYWASTRHTGVPDRFSGSGSGTDFTLTISRLQPEDFAVYYCQQFTRYPLTFGQGTKVDIK", "IC50 (nM), anti-proliferative effect on C4-2 cells (CellTiter Glo viability)": 0.21, "IC50 (nM), anti-proliferative effect on LNCaP cells (CellTiter Glo viability)": 0.67},
      {"binder": "AB-08-mc-val-cit-PAB-MMAE (antibody, V domains shown, mc-val-cit-PAB-MMAE (maleimide reagent) conjugated after TCEP reduction; average DAR 3.5 (±0.2); attachment residues not given) VH: QVQLVESGGGVVQPGRSLRLSCAASGFAFSRYGMHWVRQAPGKGLEWVAVIWYDGSNKYYADSVKGRFTISRDNSKNTQYLQMNSLRAEDTAVYYCARGGDFLYYYYYGMDVWGQGTTVTVSS VL: DIQMTQSPSSLSASVGDRVTITCRASQGISNYLAWYQQKTGKVPKFLIYEASTLQSGVPSRFSGGGSGTDFTLTISSLQPEDVATYYCQNYNSAPFTFGPGTKVDIK", "IC50 (nM), anti-proliferative effect on C4-2 cells (CellTiter Glo viability)": 0.31, "IC50 (nM), anti-proliferative effect on LNCaP cells (CellTiter Glo viability)": 1.03},
      {"binder": "AB-09-mc-val-cit-PAB-MMAE (antibody, IgG1, V domains shown, mc-val-cit-PAB-MMAE (maleimide reagent) conjugated after TCEP reduction; average DAR 3.5 (±0.2); attachment residues not given) VH: QVQLVESGGGVVQPGRSLRLSCAASGFTFSNYVMHWVRQAPGKGLEWVAIIWYDGSNKYYADSVKGRFTISRDNSKNTLYLQMNSLRAEDTAVYYCAGGYNWNYEYHYYGMDVWGQGTTVTVSS VL: DIQMTQSPSSLSASVGDRVTITCRASQGITNYLAWFQQKPGKAPKSLIYAASSLQSGVPSKFSGSGSGTDFSLTISSLQPEDFATYYCQQYNSYPITFGQGTRLEIK", "IC50 (nM), anti-proliferative effect on C4-2 cells (CellTiter Glo viability)": 0.24, "IC50 (nM), anti-proliferative effect on LNCaP cells (CellTiter Glo viability)": 0.89}
    ]},
    {"molecular_target": "T1, recombinant human PSMA (R&D Systems) (human, UniProt Q04609 44-750)", "T1 construct": "Bought protein used as the Biacore analyte; also called PSMA antigen; PSMA analyte", "T1 sequence (Q04609 44-750 limits assumed)": "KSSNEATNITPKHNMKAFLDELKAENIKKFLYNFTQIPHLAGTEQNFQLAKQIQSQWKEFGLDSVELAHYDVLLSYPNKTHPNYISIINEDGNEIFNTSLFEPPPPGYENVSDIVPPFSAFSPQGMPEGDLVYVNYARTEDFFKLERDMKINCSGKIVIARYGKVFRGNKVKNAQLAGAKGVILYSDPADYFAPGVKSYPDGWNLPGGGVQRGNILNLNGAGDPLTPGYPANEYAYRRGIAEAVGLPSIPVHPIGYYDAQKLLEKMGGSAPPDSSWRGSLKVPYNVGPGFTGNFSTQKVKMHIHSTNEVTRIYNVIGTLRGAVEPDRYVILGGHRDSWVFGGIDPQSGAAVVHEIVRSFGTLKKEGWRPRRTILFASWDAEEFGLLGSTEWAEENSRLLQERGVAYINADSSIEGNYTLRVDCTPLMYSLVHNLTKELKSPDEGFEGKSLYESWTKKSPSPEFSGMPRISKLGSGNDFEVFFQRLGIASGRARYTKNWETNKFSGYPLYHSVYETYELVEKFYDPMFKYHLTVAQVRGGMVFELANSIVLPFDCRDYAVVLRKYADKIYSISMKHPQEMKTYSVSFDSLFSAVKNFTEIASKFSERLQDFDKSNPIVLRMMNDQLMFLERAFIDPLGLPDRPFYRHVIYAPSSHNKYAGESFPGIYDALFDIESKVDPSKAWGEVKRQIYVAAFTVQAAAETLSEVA", "assay": "SPR (Biacore T200), relative to AB-01 on the same chip", "values": [
      {"binder": "AB-04 (antibody, human IgG1, V domains shown, Variable domains only; Expressed as human IgG1 (G1m3) / kappa (Km3)) VH: EVQLVQSGAEVKKPGASVKVSCKASGYTFTEYTIHWVRQAPGKGLEWIGNINPNNGGTTYNQKFEDRVTITVDKSTSTAYMELSSLRSEDTAVYYCAGAWTMDYWGQGTTVTVSS VL: DIQMTQSPSTLSASVGDRVTITCKASQDVGTAVDWYQQKPGQAPKLLIYWASTRHTGVPDRFSGSGSGTDFTLTISRLQPEDFAVYYCQQFTRYPLTFGQGTKVDIK", "Relative KD": 1.56},
      {"binder": "AB-02 (antibody, human IgG1, V domains shown, Variable domains only; Expressed as human IgG1 (G1m3) / kappa (Km3)) VH: EVQLVQSGAEVKKPGASVKVSCKASGYTFTEYTIHWVRQAPGKGLEWIGNINPNNGGTTYNQKFEDRVTITVDKSTSTAYMELSSLRSEDTAVYYCAAYWLFDYWGQGTTVTVSS VL: DIQMTQSPSTLSASVGDRVTITCKASQDVGTAVDWYQQKPGQAPKLLIYWASTRHTGVPDRFSGSGSGTDFTLTISRLQPEDFAVYYCQQYNSYPLTFGQGTKVDIK", "Relative KD": 1.98}
    ]},
    {"molecular_target": "T1, recombinant human PSMA (R&D Systems)", "assay": "SPR (Biacore T200), antibody captured on Protein A chip, recombinant human PSMA as analyte, 25 C", "units": {"Kd": "nM"}, "values": [
      {"binder": "AB-04 (antibody, human IgG1, V domains shown, Variable domains only; Expressed as human IgG1 (G1m3) / kappa (Km3)) VH: EVQLVQSGAEVKKPGASVKVSCKASGYTFTEYTIHWVRQAPGKGLEWIGNINPNNGGTTYNQKFEDRVTITVDKSTSTAYMELSSLRSEDTAVYYCAGAWTMDYWGQGTTVTVSS VL: DIQMTQSPSTLSASVGDRVTITCKASQDVGTAVDWYQQKPGQAPKLLIYWASTRHTGVPDRFSGSGSGTDFTLTISRLQPEDFAVYYCQQFTRYPLTFGQGTKVDIK", "Kd": 0.354},
      {"binder": "AB-02 (antibody, human IgG1, V domains shown, Variable domains only; Expressed as human IgG1 (G1m3) / kappa (Km3)) VH: EVQLVQSGAEVKKPGASVKVSCKASGYTFTEYTIHWVRQAPGKGLEWIGNINPNNGGTTYNQKFEDRVTITVDKSTSTAYMELSSLRSEDTAVYYCAAYWLFDYWGQGTTVTVSS VL: DIQMTQSPSTLSASVGDRVTITCKASQDVGTAVDWYQQKPGQAPKLLIYWASTRHTGVPDRFSGSGSGTDFTLTISRLQPEDFAVYYCQQYNSYPLTFGQGTKVDIK", "Kd": 0.28}
    ]},
    {"molecular_target": "T1, recombinant human PSMA (R&D Systems)", "assay": "SPR (Biacore T200), antibody captured on Protein A chip, recombinant human PSMA as analyte, 25 C", "remark": "another data set of the same source", "units": {"Kd": "nM"}, "values": [
      {"binder": "AB-03 (antibody, human IgG1, V domains shown, Variable domains only; Expressed as human IgG1 (G1m3) / kappa (Km3)) VH: EVQLVQSGAEVKKPGASVKVSCKASGYTFTEYTIHWVRQAPGKGLEWIGNINPNNGGTTYNQKFEDRVTITVDKSTSTAYMELSSLRSEDTAVYYCAGGWTFDYWGQGTTVTVSS VL: DIQMTQSPSTLSASVGDRVTITCKASQDVGTAVDWYQQKPGQAPKLLIYWASTRHTGVPDRFSGSGSGTDFTLTISRLQPEDFAVYYCQQFTRYPLTFGQGTKVDIK", "Kd": 0.245}
    ]},
    {"molecular_target": "T1, recombinant human PSMA (R&D Systems)", "assay": "SPR (Biacore T200), antibody captured on Protein A chip, recombinant human PSMA as analyte, 25 C", "remark": "another data set of the same source", "units": {"Kd": "nM"}, "values": [
      {"binder": "AB-05 (antibody, human IgG1, V domains shown, Variable domains only; Expressed as human IgG1 (G1m3) / kappa (Km3)) VH: EVQLVQSGAEVKKPGASVKVSCKASGYTFTEYTIHWVRQAPGKGLEWIGNINPNNGGTTYNQKFEDRVTITVDKSTSTAYMELSSLRSEDTAVYYCAAYWLFDYWGQGTTVTVSS VL: DIQMTQSPSTLSASVGDRVTITCKASQDVGTAVDWYQQKPGQAPKLLIYWASTRHTGVPDRFSGSGSGTDFTLTISRLQPEDFAVYYCQQYNAYSLTFGQGTKVDIK", "Kd": 0.224}
    ]}
  ]
}
